Reference: patent US20160060354A1 (published 2016)

Target: Her (trivalent GalNAc glycan-conjugated)
Experiment: SPR

B1: ASGPR subunit H1 (receptor)
chain: QNSQLQEELRGLRETFSNFTASTEAQVKGLSTQGGNVGRKMKSLESQLEKQQKDLSEDHSSLLLHVKQFVSDLRSLSCQMAALQGNGSERTCCPVNWVEHERSCYWFSRSGKAWADADNYCRLEDAHLVVVTSWEEQKFVQHHIGPVNTWMGLHDQNGPWKWVDGTDYETGFKNWRPEQPDDWYGHGLGGGEDCAHFTDDGRWNDDVCQRPYRWVCETELDKASQEPPLL
koff: 1.83e-08 s⁻¹
